# Data published in article PMC10786891, “Massively parallel profiling of RNA-targeting CRISPR-Cas13d”.
# T1: EsCas13d, nuclease-dead (Eubacterium siraeum, UniProt B0MS50, R295A;H300A;R849A;H854A)
# T1 sequence: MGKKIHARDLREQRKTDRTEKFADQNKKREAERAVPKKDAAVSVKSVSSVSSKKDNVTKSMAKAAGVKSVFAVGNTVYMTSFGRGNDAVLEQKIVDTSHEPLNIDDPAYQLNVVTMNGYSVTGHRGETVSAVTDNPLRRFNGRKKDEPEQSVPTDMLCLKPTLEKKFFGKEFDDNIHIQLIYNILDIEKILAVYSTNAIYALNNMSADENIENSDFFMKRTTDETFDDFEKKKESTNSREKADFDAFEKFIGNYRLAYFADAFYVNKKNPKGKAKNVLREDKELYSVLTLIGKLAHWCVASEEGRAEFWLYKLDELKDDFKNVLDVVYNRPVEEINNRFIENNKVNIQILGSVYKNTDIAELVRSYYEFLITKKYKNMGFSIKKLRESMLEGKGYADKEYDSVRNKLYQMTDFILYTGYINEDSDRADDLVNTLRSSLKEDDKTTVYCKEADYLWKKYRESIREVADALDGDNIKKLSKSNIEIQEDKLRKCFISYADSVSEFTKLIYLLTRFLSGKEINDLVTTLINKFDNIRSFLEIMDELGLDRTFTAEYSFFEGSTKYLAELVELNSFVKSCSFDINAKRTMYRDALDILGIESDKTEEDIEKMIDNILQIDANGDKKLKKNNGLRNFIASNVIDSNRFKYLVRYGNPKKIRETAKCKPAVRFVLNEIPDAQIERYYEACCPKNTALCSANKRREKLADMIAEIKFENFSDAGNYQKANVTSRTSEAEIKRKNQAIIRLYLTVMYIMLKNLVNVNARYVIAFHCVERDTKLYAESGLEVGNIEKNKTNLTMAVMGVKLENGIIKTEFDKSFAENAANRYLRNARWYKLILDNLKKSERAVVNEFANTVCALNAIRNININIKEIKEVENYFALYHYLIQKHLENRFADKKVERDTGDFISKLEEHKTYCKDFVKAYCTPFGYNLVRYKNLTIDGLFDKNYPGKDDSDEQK
# Biological target: T1, EsCas13d, nuclease-dead
# Assay: crRNA (strand 1, pre-loaded); Mg2+; 40 mM Tris-HCl pH 7.5, 150 mM NaCl, 6 mM MgCl2, 1 mM DTT, 0.1% Tween-20, 0.2 mg/ml BSA; 25 C; 10 min per concentration, then washed
# Details: tags: His6-TwinStrep-SUMO cleaved; N-terminal SNAP kept (SNAP-Surface 488); label: 3' end held by stalled T7 RNA polymerase
row,Binder,Kd
1,"target 1 insU 3' of 4,insA 3' of 2 (mixed) RNA 1: CACCCGUGCAAAAAUGCAGGGGUCUAAAACUGAGCGGAUAACCUCUCUAUGG RNA 2: GGGAAUGGAUCCACAUCUACGAAUUCGUACCAUAGAGAGGUUAUCCGCUUCAACCGAGAUCGGAAGAGCACACGU",7.7 ± 0.6 nM
2,target 1 del15 (mixed) RNA 1: CACCCGUGCAAAAAUGCAGGGGUCUAAAACUGAGCGGAUAACCUCUCUAUGG RNA 2: GGGAAUGGAUCCACAUCUACGAAUUCGUACCAUAGAAGGUUAUCCGCUCACCGAGAUCGGAAGAGCACACGU,8.96 ± 0.33 nM
3,"target 1 U10C,G15A (mixed) RNA 1: CACCCGUGCAAAAAUGCAGGGGUCUAAAACUGAGCGGAUAACCUCUCUAUGG RNA 2: GGGAAUGGAUCCACAUCUACGAAUUCGUACCAUAGAAAGGUCAUCCGCUCACCGAGAUCGGAAGAGCACACGU",31.3 ± 1.3 nM
4,"target 1 insU 3' of 20,insA 3' of 12 (mixed) RNA 1: CACCCGUGCAAAAAUGCAGGGGUCUAAAACUGAGCGGAUAACCUCUCUAUGG RNA 2: GGGAAUGGAUCCACAUCUACGAAUUCGUACCAUUAGAGAGGAUUAUCCGCUCACCGAGAUCGGAAGAGCACACGU",33.3 ± 2.5 nM
5,"target 1 C2G,C21A (mixed) RNA 1: CACCCGUGCAAAAAUGCAGGGGUCUAAAACUGAGCGGAUAACCUCUCUAUGG RNA 2: GGGAAUGGAUCCACAUCUACGAAUUCGUACAAUAGAGAGGUUAUCCGCUGACCGAGAUCGGAAGAGCACACGU",36 ± 8 nM
6,"target 1 insA 3' of 8,insG 3' of 8 (mixed) RNA 1: CACCCGUGCAAAAAUGCAGGGGUCUAAAACUGAGCGGAUAACCUCUCUAUGG RNA 2: GGGAAUGGAUCCACAUCUACGAAUUCGUACCAUAGAGAGGUUAUAGCCGCUCACCGAGAUCGGAAGAGCACACGU",33.1 ± 2.6 nM
7,"target 1 A9C,G12C (mixed) RNA 1: CACCCGUGCAAAAAUGCAGGGGUCUAAAACUGAGCGGAUAACCUCUCUAUGG RNA 2: GGGAAUGGAUCCACAUCUACGAAUUCGUACCAUAGAGAGCUUCUCCGCUCACCGAGAUCGGAAGAGCACACGU",23.1 ± 2.1 nM
8,"target 1 insU 3' of 21,insA 3' of 5 (mixed) RNA 1: CACCCGUGCAAAAAUGCAGGGGUCUAAAACUGAGCGGAUAACCUCUCUAUGG RNA 2: GGGAAUGGAUCCACAUCUACGAAUUCGUACCUAUAGAGAGGUUAUCCGACUCACCGAGAUCGGAAGAGCACACGU",28 ± 6 nM
9,"target 1 insG 3' of 3,insU 3' of 2 (mixed) RNA 1: CACCCGUGCAAAAAUGCAGGGGUCUAAAACUGAGCGGAUAACCUCUCUAUGG RNA 2: GGGAAUGGAUCCACAUCUACGAAUUCGUACCAUAGAGAGGUUAUCCGCUGCUACCGAGAUCGGAAGAGCACACGU",10.1 ± 0.4 nM
10,"target 1 U10A,G12U (mixed) RNA 1: CACCCGUGCAAAAAUGCAGGGGUCUAAAACUGAGCGGAUAACCUCUCUAUGG RNA 2: GGGAAUGGAUCCACAUCUACGAAUUCGUACCAUAGAGAGUUAAUCCGCUCACCGAGAUCGGAAGAGCACACGU",8.6 ± 0.8 nM
11,"target 1 A9C,U10A (mixed) RNA 1: CACCCGUGCAAAAAUGCAGGGGUCUAAAACUGAGCGGAUAACCUCUCUAUGG RNA 2: GGGAAUGGAUCCACAUCUACGAAUUCGUACCAUAGAGAGGUACUCCGCUCACCGAGAUCGGAAGAGCACACGU",13.9 ± 0.8 nM
12,"target 1 C2U,C7G (mixed) RNA 1: CACCCGUGCAAAAAUGCAGGGGUCUAAAACUGAGCGGAUAACCUCUCUAUGG RNA 2: GGGAAUGGAUCCACAUCUACGAAUUCGUACCAUAGAGAGGUUAUGCGCUUACCGAGAUCGGAAGAGCACACGU",8.54 ± 0.22 nM
13,"target 1 insU 3' of 6,insA 3' of 6 (mixed) RNA 1: CACCCGUGCAAAAAUGCAGGGGUCUAAAACUGAGCGGAUAACCUCUCUAUGG RNA 2: GGGAAUGGAUCCACAUCUACGAAUUCGUACCAUAGAGAGGUUAUCCUAGCUCACCGAGAUCGGAAGAGCACACGU",13.8 ± 1.3 nM
14,"target 1 del8,del18 (mixed) RNA 1: CACCCGUGCAAAAAUGCAGGGGUCUAAAACUGAGCGGAUAACCUCUCUAUGG RNA 2: GGGAAUGGAUCCACAUCUACGAAUUCGUACCAUGAGAGGUUACCGCUCACCGAGAUCGGAAGAGCACACGU",75 ± 10 nM
15,"target 1 insA 3' of 19,insG 3' of 19 (mixed) RNA 1: CACCCGUGCAAAAAUGCAGGGGUCUAAAACUGAGCGGAUAACCUCUCUAUGG RNA 2: GGGAAUGGAUCCACAUCUACGAAUUCGUACCAUAGAGAGAGGUUAUCCGCUCACCGAGAUCGGAAGAGCACACGU",8.62 ± 0.31 nM
16,"target 1 insU 3' of 15,insA 3' of 6 (mixed) RNA 1: CACCCGUGCAAAAAUGCAGGGGUCUAAAACUGAGCGGAUAACCUCUCUAUGG RNA 2: GGGAAUGGAUCCACAUCUACGAAUUCGUACCAUAGAGUAGGUUAUCCAGCUCACCGAGAUCGGAAGAGCACACGU",21.4 ± 2 nM
17,"target 1 insU 3' of 4,insC 3' of 1 (mixed) RNA 1: CACCCGUGCAAAAAUGCAGGGGUCUAAAACUGAGCGGAUAACCUCUCUAUGG RNA 2: GGGAAUGGAUCCACAUCUACGAAUUCGUACCAUAGAGAGGUUAUCCGCUUCACCCGAGAUCGGAAGAGCACACGU",16.8 ± 1.8 nM
18,"target 1 G5U,G15A (mixed) RNA 1: CACCCGUGCAAAAAUGCAGGGGUCUAAAACUGAGCGGAUAACCUCUCUAUGG RNA 2: GGGAAUGGAUCCACAUCUACGAAUUCGUACCAUAGAAAGGUUAUCCUCUCACCGAGAUCGGAAGAGCACACGU",16.5 ± 1.3 nM
19,"target 1 insC 3' of 20,insC 3' of 8 (mixed) RNA 1: CACCCGUGCAAAAAUGCAGGGGUCUAAAACUGAGCGGAUAACCUCUCUAUGG RNA 2: GGGAAUGGAUCCACAUCUACGAAUUCGUACCACUAGAGAGGUUAUCCCGCUCACCGAGAUCGGAAGAGCACACGU",15.2 ± 1.7 nM
20,"target 1 insU 3' of 13,insU 3' of 4 (mixed) RNA 1: CACCCGUGCAAAAAUGCAGGGGUCUAAAACUGAGCGGAUAACCUCUCUAUGG RNA 2: GGGAAUGGAUCCACAUCUACGAAUUCGUACCAUAGAGAGUGUUAUCCGCUUCACCGAGAUCGGAAGAGCACACGU",21 ± 2.6 nM
21,"target 1 insC 3' of 15,insC 3' of 11 (mixed) RNA 1: CACCCGUGCAAAAAUGCAGGGGUCUAAAACUGAGCGGAUAACCUCUCUAUGG RNA 2: GGGAAUGGAUCCACAUCUACGAAUUCGUACCAUAGAGCAGGUCUAUCCGCUCACCGAGAUCGGAAGAGCACACGU",36.9 ± 3.4 nM
22,"target 1 A9U,G17C (mixed) RNA 1: CACCCGUGCAAAAAUGCAGGGGUCUAAAACUGAGCGGAUAACCUCUCUAUGG RNA 2: GGGAAUGGAUCCACAUCUACGAAUUCGUACCAUACAGAGGUUUUCCGCUCACCGAGAUCGGAAGAGCACACGU",~90 nM
23,"target 1 insA 3' of 11,insA 3' of 7 (mixed) RNA 1: CACCCGUGCAAAAAUGCAGGGGUCUAAAACUGAGCGGAUAACCUCUCUAUGG RNA 2: GGGAAUGGAUCCACAUCUACGAAUUCGUACCAUAGAGAGGUAUAUCACGCUCACCGAGAUCGGAAGAGCACACGU",14.3 ± 0.7 nM
24,"target 1 insU 3' of 21,insU 3' of 5 (mixed) RNA 1: CACCCGUGCAAAAAUGCAGGGGUCUAAAACUGAGCGGAUAACCUCUCUAUGG RNA 2: GGGAAUGGAUCCACAUCUACGAAUUCGUACCUAUAGAGAGGUUAUCCGUCUCACCGAGAUCGGAAGAGCACACGU",34 ± 7 nM
25,"target 1 C4G,G5A (mixed) RNA 1: CACCCGUGCAAAAAUGCAGGGGUCUAAAACUGAGCGGAUAACCUCUCUAUGG RNA 2: GGGAAUGGAUCCACAUCUACGAAUUCGUACCAUAGAGAGGUUAUCCAGUCACCGAGAUCGGAAGAGCACACGU",83 ± 17 nM
26,"target 1 U10A,A20U (mixed) RNA 1: CACCCGUGCAAAAAUGCAGGGGUCUAAAACUGAGCGGAUAACCUCUCUAUGG RNA 2: GGGAAUGGAUCCACAUCUACGAAUUCGUACCUUAGAGAGGUAAUCCGCUCACCGAGAUCGGAAGAGCACACGU",87 ± 13 nM
27,"target 1 insU 3' of 20,insU 3' of 15 (mixed) RNA 1: CACCCGUGCAAAAAUGCAGGGGUCUAAAACUGAGCGGAUAACCUCUCUAUGG RNA 2: GGGAAUGGAUCCACAUCUACGAAUUCGUACCAUUAGAGUAGGUUAUCCGCUCACCGAGAUCGGAAGAGCACACGU",19.1 ± 1.6 nM
28,"target 1 U3C,C4A (mixed) RNA 1: CACCCGUGCAAAAAUGCAGGGGUCUAAAACUGAGCGGAUAACCUCUCUAUGG RNA 2: GGGAAUGGAUCCACAUCUACGAAUUCGUACCAUAGAGAGGUUAUCCGACCACCGAGAUCGGAAGAGCACACGU",12.1 ± 1.2 nM
